Results published in paper PMC8209278 (iScience, 2021).

Key:
[1] = target: Purified recombinant viral PB2 protein (influenza virus A/Puerto Rico/8/34 …, UniProt P03428 1-759); test: pull-down
[2] = target: Purified recombinant viral NP protein (influenza virus A/Puerto Rico/8/34 …, UniProt P03466 1-498); test: pull-down
Sequence of Purified recombinant viral NP protein (P03466 whole entry): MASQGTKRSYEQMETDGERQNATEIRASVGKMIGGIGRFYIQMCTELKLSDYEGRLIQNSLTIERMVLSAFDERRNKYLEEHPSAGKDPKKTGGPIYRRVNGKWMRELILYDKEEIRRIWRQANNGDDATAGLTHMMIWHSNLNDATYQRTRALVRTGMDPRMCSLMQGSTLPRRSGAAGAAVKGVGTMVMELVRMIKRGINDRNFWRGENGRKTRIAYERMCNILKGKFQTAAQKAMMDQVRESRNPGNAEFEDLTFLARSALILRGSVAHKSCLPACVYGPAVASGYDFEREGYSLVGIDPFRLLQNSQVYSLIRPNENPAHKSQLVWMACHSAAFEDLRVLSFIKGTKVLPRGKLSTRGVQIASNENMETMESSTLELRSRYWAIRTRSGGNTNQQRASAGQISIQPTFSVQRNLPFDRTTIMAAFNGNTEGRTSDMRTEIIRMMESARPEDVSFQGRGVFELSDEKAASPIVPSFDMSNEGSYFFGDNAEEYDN

B1: GST-fused full length Suv4-20h2 (enzyme)
chain: not shown
B1: binds [1]; binds [2].
